Data on six sequences can be found in the supplement of paper PMC12455559.

Data set [1] in a line: purified protein yield per well (BCA); higher = higher soluble expression. The gist of the method:
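On an OT-2 robot, lysed cells were processed by binding protein to Ni-charged magnetic beads and releasing it with SUMO protease. Expression took place in E. coli C41(DE3), in 2 mL autoinduction cultures with 100 µg/mL kanamycin, for 2 h at 37 °C followed by 40 h at 18 °C. The Pierce Rapid Gold BCA kit was used to quantify purified protein yield in each well, with values under 25 ug (0.1 mg/mL) below the detection threshold.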

Data set [2] is described as follows: melting temperature (DSF); higher = more thermostable. How it is done:
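Candidate PET hydrolases were expressed in E. coli C41(DE3) in 2 mL autoinduction cultures in 24-deep-well plates, Ni-bead purified and released by SUMO protease cleavage on an OT-2 robot. Yield per well was measured by BCA; values below 25 ug (0.1 mg/mL) are below the detection threshold. Melting temperature was measured by differential scanning fluorimetry with Sypro Orange, ramping from 25 C at 0.3 C/step.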

Data set [3] in a line: PET hydrolysis, aromatic products released after 48 h (umol product/mg enzyme); higher = more PET depolymerization activity. The gist of the method:
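Tagless, SUMO-cleaved candidate enzymes were purified on nickel beads, and 5 μg (50 μL) was added to 3.5 mg amorphous PET film or crystalline PET powder in 450 μL buffer. Buffers were 50 mM NaCitrate (pH 4.5, 5.5), 50 mM NaPhosphate (pH 6.5, 7.5) or glycine (pH 8.5). Sealed plates were incubated 48 h at 40 or 60 °C without shaking. PET hydrolysis activity is the aromatic product in the supernatant, read by absorbance at 260 and 280 nm against buffer blanks and expressed per mg enzyme.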

The mark [4] stands for this setting: substrate: cryPow, 40 °C, pH 5.5.
Where [5] appears, read: substrate: cryPow, 40 °C, pH 6.5.
[6] abbreviates: substrate: cryPow, 40 °C, pH 7.5.
Setting [7] is: substrate: cryPow, 40 °C, pH 8.5.
Setting [8] is: substrate: cryPow, 60 °C, pH 5.5.
Setting [9] is: substrate: cryPow, 60 °C, pH 6.5.
Setting [10] is: substrate: cryPow, 60 °C, pH 7.5.
Where [11] appears, read: substrate: cryPow, 60 °C, pH 8.5.
[12] abbreviates: substrate: cryPow, 40 °C, pH 4.5.
Where [13] appears, read: substrate: cryPow, 60 °C, pH 4.5.

On to “ADNPYERGPDPTERSIEAARGPFGVSTERVGSLGVSDFGGATIYHPTDRSQTYGAIAISPGFTAGWTSLSWLGERLASQGFVVIGIDTITRLDQPGSRGRQLLAALDYATTRSNARALIDAQRLAVAGHSMGGGGTLEAAAERPSLKAAIPLAPWNLDKSWAEVRTPTLIIGGESDNIAAVNTHSIPFYNSLSNAREKAYMEIDNGTHFFPNTANTLMAKYMISWMKRYIDDDTRYEQFLCPPPDDRGISEYRHTCPGS [DP088]”, for which the “purified protein yield per well” value in data set [1] amounted to 70 µg. In data set [2], this sequence returned a melting temperature of 43.9 C. The PET hydrolysis in data set [3] (setting [4]), in data set [3] (setting [5]), in data set [3] (setting [6]), in data set [3] (setting [7]), in data set [3] (setting [8]) and in data set [3] (setting [9]) was below 3 each time. The PET hydrolysis in data set [3] (setting [10]) and in data set [3] (setting [11]) was below 3 throughout.
On to “ADNPYQRGPDPTRSSVAAVNGPFANTSVAVPTGYGFNGGRIYYPTDTSQGTFGAVAISPGYTALFSVELAWMGPWLASHGFVVIGIETNSRNDFDTARGTQLLAALDYLVQQSPVRDRIDPNRLAVSGHSMGGGGALSAALRRPALKAAVGIAPYSPSSNLANDRVPTMVFAGQADTVVTPSYATGLYNSLPTTTESAYLEVAGADHGFMVGRSNPVLIRTMLPFLKMFVDNDARYSQFLCPLADNSGVVSYRSTCPLLPPTSTTPPPIPSDTPPPIPTTPPQTTPPPSNPPGAASLIVGAQSNRCLDVPNASRANGTRVQLWDCNRGTNQSWTYTTNKQLRVYGDMCLDAAGSGNGAAVQIYGCHSQTNQQWNVNANGTISSVQSGRCLDVWSTANGAQVQLYDCHGQTNQRFTLTPLT [ESM101]”, for which the “purified protein yield per well” value in data set [1] was found to be 149 µg. Also, the melting temperature in data set [2] is 58.6 C. In addition, the PET hydrolysis in data set [3] (setting [12]) is 7; in data set [3] (setting [4]), 19; in data set [3] (setting [5]) it was 8; in data set [3] (setting [6]), 4; in data set [3] (setting [13]), below 3; in data set [3] (setting [8]), below 3. The PET hydrolysis in data set [3] (setting [9]) and in data set [3] (setting [10]) was below 3 in each case.
Turning to “ADSPYQRGPDPTLASVAATRGPFATTQATVPAGNGFNGGYVYYPTDTSQGTWGAVAIVPGYSALFANEEAWMGPWLASFGFVVIGIETNSRTDGADARATQLLAALDYLTRTSPIRNRVDPNRLSVMGHSAGGAGTLLAALRRPTLKAAVGLAPGTPGNNLNMSTTQVPTMLLSGQNDGTVTPSYVQGIYNTLPAGVEHAWAELAGNDHLSFTRSNPTEMRLLIPWLKTFLDNDTRYTQFLCPLADSTGVSRYSATCPLVPPDGPTPPPTTAPPTTTPPTSTPPTTSAPTTPPPSGAACTATYRTVNSWSGGFQGEVTVTAGTAAVNGWTVTWNLSNGQSISQVWNGTLSTSGSTATVRNVSYNGSLAPGGTTTFGFLGSGTPANASPTCASP [ESM014]”, the “purified protein yield per well” value in data set [1] was 85.8 µg. Also, in data set [2], the melting temperature came to 59.2 C. Also, the PET hydrolysis in data set [3] (setting [12]), in data set [3] (setting [4]), in data set [3] (setting [5]), in data set [3] (setting [6]), in data set [3] (setting [13]) and in data set [3] (setting [8]) was below 3 in each case. Also, the PET hydrolysis in data set [3] (setting [9]) and in data set [3] (setting [10]) was below 3 each time.
On to “LNPYQRGPNPTDAILEASSGPYATSSISVPSIVSGFGGGRIYYPTTTADGTFGGIAISPGFTATWSSLSWLGPRLASHGFVVIGIETNTIYDQPTSRGQQLLAALDYLVNTSSVRTRVDSSRLAVAGHSMGGGGTLWAANSRPSLQAAIPLAPWNTDKSWSGVRVPTLIVGGQSDTVAPVATHSIPFYTSIPAASEKAYLELRSASHFFPQTVNTTVAVSMVSWLKRYVDDDTRYDPWLCPGPSGLSVSDYRDTCPA [TEP178]”, for which, in data set [1], the “purified protein yield per well” value was found to be 64.5 µg. The same sequence gave a melting temperature in data set [2] of 52 C. Further, the PET hydrolysis is below 3 in data set [3] (setting [12]); 6 in data set [3] (setting [4]); 21 in data set [3] (setting [5]); 29 in data set [3] (setting [6]); below 3 in data set [3] (setting [13]); below 3 in data set [3] (setting [8]). Moreover, the PET hydrolysis in data set [3] (setting [9]) was found to be 3; in data set [3] (setting [10]), 4.
Turning to “ADNPYQRGPAPTAASISADTGPFATATTVAEGTGFGGATIYYPTDTSQGTFGAIGMLPGWTAPWSAYAWLGPRLASQGFVVIGVDTNDPNDYPAARATQVLAALDHLTESSAVRDRVDPDRLAVAGHSMGGGGSLEAALSRPSLKAVYGIEPYDDITSDFSNLTVPTFIQAGQDDTLVTPSYLESLYATLPSTSEHAYLEIAGADHMFVGSPNVILARTLISWMKIFVDDDTRYTQFLCPLSDDSGVSQYRNTCPLTPGGSTGSPTATAPSPPASSSNPPGTPSSPAPTDGTCRVTYTTNAWDSGLTASVTIANTGTTASTGWSLAFTLPDGQTITSGWNATYSPSSGQVTATGVSHNATIPAGESINIGFQATHTGDTGAPTTFALNGQTCTIT [DP021]”, the “purified protein yield per well” value in data set [1] was 170 µg. Further, the melting temperature in data set [2] turned out to be 47.5 C. The PET hydrolysis in data set [3] (setting [4]) was 5; in data set [3] (setting [5]), below 3; in data set [3] (setting [6]), below 3; in data set [3] (setting [7]) it was below 3; in data set [3] (setting [8]), below 3; in data set [3] (setting [9]), below 3. Also, the PET hydrolysis in data set [3] (setting [10]) and in data set [3] (setting [11]) was below 3 in each case.
On to “GQAPTTAAQVRASAFAKGPDPTEQTIKAQRGPFQIKQLSVAAQSGRGFNRGTIYYPTDTGQGTYGAIAVIPGFLEPEFITSWYGPTLASYGFVVMTLEPFAITDFPDPRSNQLLAAVDWLAADSPVKAQVDPNRLAVMGHSMGGGGALLAASKRPSLKAAVPLAPWNLYADFAGVTVPTLVIGADNDFIAPVGMHADPMYASIKASPNEGYLKLKNADHFTVNSYSATLTKFTVSWMKRYVDEDTRYTQFLCPAPQPDPSFASFQMTCPS [TEP173]”, for which, in data set [1], the “purified protein yield per well” value turned out to be 293 µg. In data set [2], this sequence gave a melting temperature of 41.2 C. For the same sequence, the PET hydrolysis is below 3 in data set [3] (substrate: aFilm, 40 °C, pH 4.5); below 3 in data set [3] (substrate: aFilm, 40 °C, pH 5.5); below 3 in data set [3] (substrate: aFilm, 40 °C, pH 6.5); below 3 in data set [3] (substrate: aFilm, 40 °C, pH 7.5); below 3 in data set [3] (substrate: aFilm, 60 °C, pH 4.5); below 3 in data set [3] (substrate: aFilm, 60 °C, pH 5.5). Further, the PET hydrolysis in data set [3] (substrate: aFilm, 60 °C, pH 6.5) is below 3; in data set [3] (substrate: aFilm, 60 °C, pH 7.5), below 3; in data set [3] (setting [12]), below 3; in data set [3] (setting [4]), below 3; in data set [3] (setting [5]), below 3; in data set [3] (setting [6]) it was below 3. Also, the PET hydrolysis in data set [3] (setting [13]), in data set [3] (setting [8]), in data set [3] (setting [9]) and in data set [3] (setting [10]) was below 3 throughout.
